In this test the target is A/Texas/37/2024 (H5N1) HA (influenza A virus A/Texas/37/2024 (H5N1)). Nature of the test: BLI.

Residue numbers refer to the chain shown, from its start. In names and notes the source's numbering stands.

B1: HB31 VH R55G germline revertant Fab (Fab, V domains shown)
VH: EVQLLESGGGLVQPGGSLRLSCTVSGFTSSNYDMSWVRQAPGKGLEWVSGISGTGGDTYYADSVKGRFTISRDNSKNTLSLQMNSLRADDTAVYFCARDRPVLRYFDWQPYGLDVWGKGTTVTVSS
VL: QSALTQPPSASGSPGQSVTISCTGTSSDVGGYNYVSWYQQYPSKAPKLMIYEVSKRPSGVPDRFSGSKSGNTASLTVSGLQAEDEADYYCNSYAGSNLYVFGTGTKVTVL
In turn, B1 had a dissociation constant Kd of 10.5 nM.

B2: HB31 Fab (Fab, V domains shown)
VH: B1 VH with G56R
VL: B1 VL
For B2, binding was put at a Kd of 4.5 nM.

Source of the values: article doi:10.1101/2025.11.06.687086 (2025).
